In one test the test system is Gardnerella cells. Put plainly: Turbidity reduction (OD) assay of Gardnerella suspensions. The format is cell-based. The conditions noted are these: Gv_10 pH 6.0, Gv_17 pH 7.0, Gv_23 pH 7.4; aerobic, room temperature; vs buffer. The procedure:
FIGS. 4A to 4C show three enzymatic activity assays where the enzymatic activity of natural Gardnerella prophage endolysins of the present disclosure is measured by detecting the change in turbidity of a suspension of Gardnerella cells. In FIG. 4A, the enzymatic activity of the endolysins is measured by detecting the change in turbidity of a suspension of the G. leopoldii strain Gv_10 at pH 6.0. In FIG. 4B, the enzymatic activity of the endolysins is measured by detecting the change in turbidity of a suspension of the G. piotii strain Gv_17 at pH 7.0. In FIG. 4C, the enzymatic activity of the endolysins is measured by detecting the change in turbidity of a suspension of the G. swidsinskii strain Gv_23 at pH 7.4. Treatment was conducted in a medium adjusted to the appropriate pH in a photometric cuvette against buffer. Then, the change in turbidity was assessed by measuring the optical density (OD) at 600 nm. As a result, the drop in turbidity was more pronounced for the endolysin treated groups than for the buffer, indicating enzymatic activity.
To test the activity of the purified endolysins, the turbidity change of Gardnerella suspensions (see Table 2) was measured at 610-620 nm using essentially the method described in Reference Example 2, where 95 ul of bacterial suspension in Hardy Broth at the indicated pH was mixed with 5 ul of endolysin solution in a photometric cuvette under aerobic conditions at room temperature. In turbidity reduction assays, a decrease in light scattering (i.e., turbidity reduction) of a suspension of live cells can be used in a spectrophotometer to assay the activity of peptidoglycan hydrolases. The reduction in optical density over time (minutes) can be used to calculate a rate of hydrolysis. Results are compared to a “no-enzyme added, buffer only” control preparation treated identically for the same period of time. In this manner, a specific activity of the enzyme preparation can be reported as ΔOD/time/ul lysin protein. […] As explained above, due to the low content of peptidoglycan in the cell wall, the fact that a peptidoglycan-degrading enzyme such as the identified endolysins could efficiently lyse the bacterial cell walls was an unexpected and surprising discovery.
Gardnerella cells were recovered from cryo stock by plating on Chocolate Agar plates (Beckton Dickinson) and incubating for 48 h at 37° C. under anaerobic conditions. For Lactobacilli, BD Schaedler/5% sheep blood agar plates were used instead. Colonies were scraped from the plate, resuspended in Hardy Broth or NYC-III-HS-5.0 at the pH as indicated, and the suspension adjusted to OD (610 or 620 nm as indicated) 0.1. It has to be noted that two Tecan Microplate readers, having respectively a 610 nm or 620 nm filter, have been used interchangeably in the experiments. Although it doesn't make any difference for the experiments, the exact wavelength used is specified in each example. If not stated otherwise, 90 μl cell suspension was mixed with 10 μl endolysin solution, for the different species/endolysin combinations, in 384-well plates. OD(610-620 nm as indicated) was measured at the beginning of the reaction and at the end, either as two measurement points or as a continuous kinetic in a Tecan F200 Microplate reader. The reactions were incubated for 5 hours (or otherwise the time indicated) at 37° C. under anaerobic, micro-aerophilic or aerobic conditions as indicated. Anaerobic conditions intend that oxygen was fully depleted from the container in which the bacteria are incubated (Sigma-Aldrich anaerobic jar or sealable lunch box) with an anaerobic sachet, and the lack of oxygen was confirmed with an anaerobic indicator inside the container. Where micro-aerophilic conditions are indicated, the candle-in-a-jar method was used (tea candle lit in an appropriate sealable container, which reduces oxygen levels until the flame dies out). […]

The subject of test [1] is G. swidsinskii strain Gv_23. Briefly: Quantitative reduction in viable CFU assay in bacterial suspension. The format is cell-based, Gardnerella swidsinskii. The conditions noted are these: 5 hours, pH 5.0, anaerobic, 10 ul endolysin (0.2 mg/ml where possible) + 90 ul 5e7 CFU/ml, average of triplicate. The method, then:
The lysis activity on the four main species of Gardnerella of 91 constructs (natural and domain-swapped endolysins) was quantitatively assessed using the method described in Reference Example 2. Briefly, 90 ul 5e7 CFU/ml of the indicated strain were incubated for 5 hours at pH 5.0 under anaerobic conditions with 10 ul endolysin (concentration adjusted to 0.2 mg/ml where possible, see Table 4).
The results are shown in FIGS. 8A to 8D together with Tables 5A to 5C. In FIGS. 8A to 8D, the logarithmic Y axis depicts the count of surviving cells. The dotted line indicates the limit of detection (LOD) given by plating of 2 ul of the reaction mix (500 CFU/ml). Each combination of the natural 10 H-domains and the natural 9 B-regions was assessed, including the natural endolysins (H1B1, H2B2, H3B3, etc.), plus H6B6. […] The activity of each construct was measured on each of the 4 main Gardnerella species G. vaginalis sensu stricto, G. leopoldii, G. piotii, and G. swidsinkii. All conditions have been measured in triplicate. The survival after 5 hours incubation at pH 5.0 under anaerobic conditions with endolysins vs. buffer was measured by quantitative plating. The values indicate the log 10 of the ratio of surviving CFU for treated vs. untreated cells. The average of the triplicate measurements is used. In tables 5A and 5B, high negative log 10 values, e.g. −6.7, −5.5, −4.8 etc. are associated with high enzymatic activity, while log 10 values closer to zero or even positive log 10 values are associated with low or no enzymatic activity. […] Inversely, a reduction value of −3.7 means a 10^3.7-fold (=5012-fold) reduction of viable CFU in treated sample vs. untreated control.
Gardnerella cells were recovered from cryo stock by plating on Chocolate Agar plates (Beckton Dickinson) and incubating for 48 h at 37° C. under anaerobic conditions. For Lactobacilli, BD Schaedler/5% sheep blood agar plates were used instead. Colonies were scraped from the plate, resuspended in Hardy Broth or NYC-III-HS-5.0 at the pH as indicated, and the suspension adjusted to OD (610 or 620 nm as indicated) 0.1. It has to be noted that two Tecan Microplate readers, having respectively a 610 nm or 620 nm filter, have been used interchangeably in the experiments. Although it doesn't make any difference for the experiments, the exact wavelength used is specified in each example. If not stated otherwise, 90 μl cell suspension was mixed with 10 μl endolysin solution, for the different species/endolysin combinations, in 384-well plates. OD(610-620 nm as indicated) was measured at the beginning of the reaction and at the end, either as two measurement points or as a continuous kinetic in a Tecan F200 Microplate reader. The reactions were incubated for 5 hours (or otherwise the time indicated) at 37° C. under anaerobic, micro-aerophilic or aerobic conditions as indicated. Anaerobic conditions intend that oxygen was fully depleted from the container in which the bacteria are incubated (Sigma-Aldrich anaerobic jar or sealable lunch box) with an anaerobic sachet, and the lack of oxygen was confirmed with an anaerobic indicator inside the container. Where micro-aerophilic conditions are indicated, the candle-in-a-jar method was used (tea candle lit in an appropriate sealable container, which reduces oxygen levels until the flame dies out). Then each well was diluted in 5 steps (10^−1 to 10^−5) using 96-U-well bottom plates, and 2 μl of each dilution of each reaction mix are plated on BD Chocolate agar plates or BD Schaedler/5% sheep blood agar plates for Gardnerella and Lactobacilli, respectively, for detecting and quantifying surviving CFU. Detection plates were incubated at 37° C. for 48 hours under anaerobic conditions.

The record followed here is patent US20220315908A1, “NOVEL GARDNERELLA ENDOLYSINS AND USES THEREOF” (priority 2019, published 2022).

B1: H5B5: natural Gardnerella prophage endolysin from strain JCP7276 (protein)
chain: MSKKGIDVSEWQGDIDFNAVKASGVEFVIIRAGYGIGCKDKWFEQNYRKAKTAGLDVGAYWYSYANSSSEAAEEAQSCANMLSGKSFEYPVYFDLEEKSQLNRGRAFCDSLITGFCSKLEACGYYAGFYTSLSTANNLVSAHVRNRYALWIAQWNTHCSYQGSYGLWQYSSNGSVPGVAGRVDMDYAYKDYPSIIKNAGLNGCKNGGSDQAARTSSIDEVAREVINGAWGNGNERKQRLTQAGYDYTSVQNKVNKLLGVKACRKSVDELAREVIRGTWGNGNERKNRLTQAGYDYDTVQKRVNELL
modifications: EL5_strain_JCP7276
notes: natural Gardnerella prophage endolysin from strain JCP7276
As to B1, in the test with Gardnerella cells, the “enzymatic activity by drop in turbidity (capacity to lyse Gardnerella cell walls)” value (“enzymatic activity by drop in turbidity” for short) is on record as “active”. Further, in test [1], the “log 10 of the ratio of surviving CFU for treated vs. untreated cells” value (shortened to “log 10 of the ratio of surviving CFU”) is −0.1 log 10.

B2: H7B7: natural Gardnerella prophage endolysin from strain AMD (protein)
chain: MSKKGIDVSEWQGDIDFNAVKASGVEFVIIRAGYGIGCKDKWFEQNYRKAKTAGLDVGAYWYSYANSASEAAEEAQSCANMLSGKSFEYPVYFDLEEKSQLNRGRAFCDSLITSFCSKLETYGYYAGFYTSLSTANNLVSSHVRNRYALWIAQWNTHCSYQGSYGLWQYSSSGSVPGVAGRVDMDYAYKDYPSIIKNAGLNGCKNGGSDQAARTSSIDEVAREVINGAWGNGNERKQRLTQAGYDYTSVQNKVNKLLGVKACRKSVDELAREVIRGTWGNGNERKNRLTQAGYDYDTVQKRVNELL
modifications: EL7_strain_AMD
notes: natural Gardnerella prophage endolysin from strain AMD
B2: the “enzymatic activity by drop in turbidity” value with Gardnerella cells is “active”. Also, in test [1], the “log 10 of the ratio of surviving CFU” value is −3.2 log 10.

B3: H1B1: natural Gardnerella prophage endolysin from strain HMP9231 (protein)
chain: MSKKGIDVSEWQGDIDFNAVKASGVEFVIIRAGYGIGCKDKWFEQNYRKAKTAGLDVGAYWYSYANSGFEAAEEAQSLMNMLSGKSFEYPVYFDLEEKSQLNRGRAFCDSLITSFCNKLEACGYYAGFYTSLSTANNLVSAHVRNRYALWIAQWNTHCNYQGSYGLWQYSSNGSVPGVAGRVDMDYAYVDYPSIIKNAGLNGCKNGGSDQAARTSSIDEVAREVINGAWGNGSTRKQRLTSAGYDYASVQNKVNELLGVKACRKSVDELAREVIRGAWGNGSTRKQRLAQAGYDYDTVQKRVNELL
modifications: EL1_strain_HMP9231
notes: natural Gardnerella prophage endolysin from strain HMP9231
As for B3, the “enzymatic activity by drop in turbidity” value in the test with Gardnerella cells is recorded as “active”. Moreover, in test [1], the “log 10 of the ratio of surviving CFU” value is −3.5 log 10.

B4: H3B3: natural Gardnerella prophage endolysin from strain Gv18-4 (protein)
chain: MSKKGIDVSVWQGDIDFNSVKASGVEFVIIRAGYGIGHKDKWFEENYRKAKTAGLDVGSYWYSYASSAGEASEEAQSCVNILSGKSFEYPIYFDLEEKSQLNRGRDFCDSLITSFCNKLEACGYYAGFYTSLSVANNLVSSHVRDRYALWIAQWNTHCSYQGSYGLWQYSSSGSVNGIAGRVDMDYAYVDYPSVIKNAGLNGYQNGGSYTAPQTSSIDEVAREVINGDWGNGNDRKNRLISAGYDYASVQNKVNELLGVKAYRKSVDELAREVIRGTWGNGSMRKHRLTQAGYDYDAVQKRVNELL
modifications: EL3_strain_Gv18-4
With B4, the “enzymatic activity by drop in turbidity” value in the test on Gardnerella cells is listed as “active”. Moreover, in test [1], the “log 10 of the ratio of surviving CFU” value is reported as −5.4 log 10.

B5: H2B2: natural Gardnerella prophage endolysin from strain Gv18-4 (protein)
chain: MSKRGIDVSEWQGDIDFNAVKASGVEFVIIRAGYGIGCKDKWFEQNYRKAKTCGLDVGAYWYSYANSGFEAAEEAQSCVNMLSGKSFEYPVYFDLEEKSQLNRGRAFCDSLITGFCNKLESCGYYAGFYTSLSTANNLVSAHVRNRYALWIAQWNTHCSYQGSYGLWQYSSSGSVPGVAGRVDMDYAYVDYPSIIKNVGLNGCKNGGSDQAARTSSIDEVAREVINGAWGNGNERKQRLTSAGYDYASVQNKVNELLGVKACRKSVDEIAREVIRGTWGNGSTRKQRLTQAGYDYDTVQKRVNELL
modifications: EL2_strain_Gv18-4
Consider B5, for which, in the test on Gardnerella cells, the “enzymatic activity by drop in turbidity” value was “active”. Moreover, in test [1], the “log 10 of the ratio of surviving CFU” value is listed as −5.4 log 10.

B6: H4B4: natural Gardnerella prophage endolysin from strain Gv5-1 (protein)
chain: MSKKGIDVSEWQGDIDFNAVKASGVEFVIIRAGYGIGCKDKWFEQNYRKAKTCGLDVGAYWYSYANSGFEAAEEAQSCVNMLSGKSFEYPVYFDLEEKSQLNRGRAFCDSLITSFCSKLETYGYYAGFYTSLSVVNNLVSAHVRDRYALWIAQWNTHCSYQGSYGLWQYSSSGSVPGVAGRVDMDYAYVDYPSIIKNVGLNGCKNGGSDQATRTSSIDEVAREVINGAWGNGNERKQRLTSAGYDYASVQNKVNKLLGVKAYRKSVDELAREVIRGTWGNGNERKQRLAQAGYDYDTVQKRVNELL
modifications: EL4_strain_Gv5-1
For B6, in the test with Gardnerella cells, the “enzymatic activity by drop in turbidity” value is recorded as “active”. Also, in test [1], the “log 10 of the ratio of surviving CFU” value was −2.0 log 10.
